The results in this text go back to the supplement of paper PMC9170038.

The data set concerns K4 kissing-loop RNA reporter. Put plainly: apparent KD of K4 kissing-loop reporter; higher = weaker reporter binding. To be noted: Eterna round: R107. The method, then:
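RNA-MaP round R107: designed RNA switches with theophylline, tryptophan, arginine or FMN aptamers are transcribed on-chip within common flanks. They are titrated with a labelled K4 kissing-loop RNA reporter in RNA-MaP buffer (100 mM Tris pH 7.5, 80 mM KCl, 4 mM MgCl2), without ligand or with the indicated ligand. Median apparent KD per design.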

The mark [1] stands for this setting: input ligand: theophylline 20 uM.
Where [2] appears, read: input ligand: tryptophan 2.4 mM.
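Also: bound reporter read as fluorescence of individual clusters on recovered sequencing chips by microscopy, with normalized cluster intensities fitted with a binding model.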

Take “CCCAAAAUAUGCAGUGAUGUUGCAACCGAUACCAGUAUCGAAAGAUACCCUUGGCAGCGGAAAACCGCAACGUAAUUUAAAAGGG [Ex Theophylline A K4 16]”: the “apparent KD of K4 kissing-loop reporter” value by setting is: (input ligand: FMN 200 uM) 204 nM; (input ligand: arginine 13.2 mM) 177 nM; (input ligand: none) 147 nM; under setting [1], 212 nM; under setting [2], 147 nM.

In the case of “CCCUCACGAGUGAUGUUCGUAGGGUACAGUCAGGAUAUCAUGCGGUUGAGAAGGGACAGAGAGGGCGGCCACUGGUUGCUCUUCU [Tiatesqu]”, the “apparent KD of K4 kissing-loop reporter” value came to 150 nM (input ligand: FMN 200 uM); 249 nM (input ligand: arginine 13.2 mM); 235 nM (input ligand: none); 418 nM under setting [1]; 200 nM under setting [2].

As for “CCCUCACGAGUGAUGUUCGUAGGGUACAGUCAGGAUAUCAUGCGGUUGAGAAGGGACAGAGAGGGCGGCGGCGGGUUGCUCCUCU [Beeded]”, the “apparent KD of K4 kissing-loop reporter” value (input ligand: FMN 200 uM) is 290 nM; the “apparent KD of K4 kissing-loop reporter” value (input ligand: arginine 13.2 mM) was found to be 240 nM; the “apparent KD of K4 kissing-loop reporter” value (input ligand: none) turned out to be 281 nM; the “apparent KD of K4 kissing-loop reporter” value under setting [1] turned out to be 711 nM; the “apparent KD of K4 kissing-loop reporter” value under setting [2] was found to be 495 nM.

With “CCGAAGAACCAGUGAUGUUGGUUGACUAGACAGGAUAUGAGCAACAUCAGAAGGGUCUGGCUUCGGGAGUGGGUCACGCUGACCU [Iserreanor]”, the “apparent KD of K4 kissing-loop reporter” value (input ligand: FMN 200 uM) amounted to 271 nM; the “apparent KD of K4 kissing-loop reporter” value (input ligand: arginine 13.2 mM) is 282 nM; the “apparent KD of K4 kissing-loop reporter” value (input ligand: none) turned out to be 426 nM; the “apparent KD of K4 kissing-loop reporter” value under setting [1] is 912 nM; the “apparent KD of K4 kissing-loop reporter” value under setting [2] was 808 nM.

As to “CCGCUGUACUGCAAUAAGUGAUGUUUAUUGCAGGAUAUCUGGAAACAGAGAAGGGCAUGUACUCGACUUAGCCACUACAGCGGUU”, the “apparent KD of K4 kissing-loop reporter” value amounted to 144 nM (input ligand: FMN 200 uM); 57.3 nM (input ligand: arginine 13.2 mM); 61.1 nM (input ligand: none); 56.9 nM under setting [1]; 65.2 nM under setting [2].

For the sequence “CCGGCCCGGCCGGAUACCAGUGCGCCGCUGUGAACUGCGGGCCCAGAGUGAUGUUCGGGACACCCUUGGCAGCCGCCUGGGUCGC [#2 Same State - Theophylline B Attempt #26 (HarryS)]”, the “apparent KD of K4 kissing-loop reporter” value is, setting by setting: (input ligand: FMN 200 uM) 358 nM; (input ligand: arginine 13.2 mM) 380 nM; (input ligand: none) 444 nM; under setting [1], 325 nM; under setting [2], 341 nM.

As for “CCGGGCGGCCGAAGGAGCGGGCGGACCCGAGUGAUGUUCGGGUGGCCCGUGAGGGCCGGUGCCCAGGUAGGUCGCGGAUCCGCCC [#2 Same State - Arginine B Attempt #3 (HarryS)]”, the “apparent KD of K4 kissing-loop reporter” value was found to be 155 nM (input ligand: FMN 200 uM); 120 nM (input ligand: arginine 13.2 mM); 140 nM (input ligand: none); 116 nM under setting [1]; 135 nM under setting [2].

In the case of “CCGUGGAGUGAUGUUCCACGUACUACGGAUACCAGCUUUGCCAAAGGCCCUUGGCAGCCGCACGGCUCAGUGAUGUUGGGUCGCG [Same State Theophylline A G10]”, the “apparent KD of K4 kissing-loop reporter” value runs as follows: (input ligand: FMN 200 uM) 167 nM; (input ligand: arginine 13.2 mM) 153 nM; (input ligand: none) 172 nM; under setting [1], 156 nM; under setting [2], 148 nM.

For “CCUAGUGAUGUUAGGUCGUGCUCCUAUGAUACCAGCGUAGUCACUCGCCCUUGGCAGCAUUCCUUAUAAGGCGGUCGGGCGCGGU [theeternabot_sameState_KL_Theo_A_34]”, the “apparent KD of K4 kissing-loop reporter” value is, setting by setting: (input ligand: FMN 200 uM) 218 nM; (input ligand: arginine 13.2 mM) 104 nM; (input ligand: none) 193 nM; under setting [1], 158 nM; under setting [2], 154 nM.

In the case of “CCUAUCUCAUACGAUACCAGUCAAAAUAUAAUUAACCAGUGAUGUUGGAUUUACCAAGGAGACCCUUGGCAGCGUAUGGGAUAGG [Ex Theophylline B K4 18]”, the “apparent KD of K4 kissing-loop reporter” value reads like this: (input ligand: FMN 200 uM) 387 nM; (input ligand: arginine 13.2 mM) 412 nM; (input ligand: none) 410 nM; under setting [1], 517 nM; under setting [2], 540 nM.

For “CCUAUCUCAUACGAUACCAGUCAACGAGUGAUGUUCGAAUAAAUAAAUUUGCCAUAUAAUGACCCUUGGCAGCGUAUGGGAUAGG [Ex Theophylline B K4 14]”, the “apparent KD of K4 kissing-loop reporter” value (input ligand: FMN 200 uM) is 352 nM; the “apparent KD of K4 kissing-loop reporter” value (input ligand: arginine 13.2 mM) was 373 nM; the “apparent KD of K4 kissing-loop reporter” value (input ligand: none) is 337 nM; the “apparent KD of K4 kissing-loop reporter” value under setting [1] was 431 nM; the “apparent KD of K4 kissing-loop reporter” value under setting [2] is 334 nM.

As to “CCUAUCUCAUACGAUACCAGUCAAUGAAAUUUUAUCAAUGCCAUCACCGAGUGAUGUUCGGACCCUUGGCAGCGUAUGGGAUAGG [Ex Theophylline B K4 3]”, the “apparent KD of K4 kissing-loop reporter” value amounted to 249 nM (input ligand: FMN 200 uM); 195 nM (input ligand: arginine 13.2 mM); 237 nM (input ligand: none); 329 nM under setting [1]; 223 nM under setting [2].

For “CCUAUCUCAUACGAUACCAGUGAAUUUAUAUUUAUUAGCAGUGAUGUUGCAUUCCAAGUACACCCUUGGCAGCGUAUGGGAUAGG [Ex Theophylline B K4 22]”, the “apparent KD of K4 kissing-loop reporter” value turned out to be 147 nM (input ligand: FMN 200 uM); 204 nM (input ligand: arginine 13.2 mM); 178 nM (input ligand: none); 172 nM under setting [1]; 140 nM under setting [2].

Turning to “CCUAUCUCGUAGGAUACCAGACUAUGAUCUAUGAUCAAUGCCAUCACCGAGUGAUGUUCGGUCCCUUGGCAGCCUAUGAGAUGGG [#13 K4 Theophylline B Exclusion]”, the “apparent KD of K4 kissing-loop reporter” value (input ligand: FMN 200 uM) turned out to be 166 nM; the “apparent KD of K4 kissing-loop reporter” value (input ligand: arginine 13.2 mM) is 147 nM; the “apparent KD of K4 kissing-loop reporter” value (input ligand: none) came to 159 nM; the “apparent KD of K4 kissing-loop reporter” value under setting [1] worked out at 221 nM; the “apparent KD of K4 kissing-loop reporter” value under setting [2] was 154 nM.

Consider “CCUGCAGCUGUAACCGAGUGAUGCUACGGACGAGGACCGGUACGGCCGCCACUCGCCAGUGAUGUUGGUGUGGGAGGACGUAACU [KL-XTryp-A22]”, for which the “apparent KD of K4 kissing-loop reporter” value reads like this: (input ligand: FMN 200 uM) 200 nM; (input ligand: arginine 13.2 mM) 140 nM; (input ligand: none) 190 nM; under setting [1], 178 nM; under setting [2], 199 nM.

In the case of “CCUUCUCUUGGUAGUGAUGUUAUCAAGGACAAGGAUAUCAUCUCAAUGAGAAGGUGUCCUUGAUAACAUGGAGGUCUGAAACAGA [Omei KL FMN A Exc C v8]”, the “apparent KD of K4 kissing-loop reporter” value (input ligand: FMN 200 uM) stood at 65.5 nM; the “apparent KD of K4 kissing-loop reporter” value (input ligand: arginine 13.2 mM) stood at 352 nM; the “apparent KD of K4 kissing-loop reporter” value (input ligand: none) stood at 174 nM; the “apparent KD of K4 kissing-loop reporter” value under setting [1] was found to be 455 nM; the “apparent KD of K4 kissing-loop reporter” value under setting [2] amounted to 615 nM.

In the case of “CCUUUCAGUUACGAUACCAGUCUAAUAUAUUUGAUCAAUACCCUCGCCGAGUGAUGUUCGGACCCUUGGCAGCGUCUGGGACAGG [gbbymullin]”, the “apparent KD of K4 kissing-loop reporter” value came out at 526 nM (input ligand: FMN 200 uM); 428 nM (input ligand: arginine 13.2 mM); 525 nM (input ligand: none); 418 nM under setting [1]; 337 nM under setting [2].

On to “CGACUAGUCUUGCAACCCUAGUCGAUAGACUAGGAUAUCAGGAAACUGAGAAGGAGUCUACUUGCAGUGAUGUUGCAAGAAUAAU [[F]''-[K]'-[F]'-[F1]-[F2]-[K1]-[K2]_Design6]”, for which the “apparent KD of K4 kissing-loop reporter” value runs as follows: (input ligand: FMN 200 uM) 163 nM; (input ligand: arginine 13.2 mM) 176 nM; (input ligand: none) 170 nM; under setting [1], 168 nM; under setting [2], 156 nM.

With “CGAGAAAGAGCGACUGGCGAUCUGUCUGAAGGAGCGGGUGCUAGCCCAGGUAGGUCGCAGACCUUGACGCCAGUGAUGUUGGCGG [Ritiatso]”, the “apparent KD of K4 kissing-loop reporter” value (input ligand: FMN 200 uM) worked out at 220 nM; the “apparent KD of K4 kissing-loop reporter” value (input ligand: arginine 13.2 mM) was 180 nM; the “apparent KD of K4 kissing-loop reporter” value (input ligand: none) stood at 208 nM; the “apparent KD of K4 kissing-loop reporter” value under setting [1] was 252 nM; the “apparent KD of K4 kissing-loop reporter” value under setting [2] was found to be 177 nM.

With “CGCAGUGAUGUUGCGAGCAGCUACAGGGAAGGAGCGCUUUAGUAAGCAGGUAGGUCGCCCACGCAGUGAUGUUGCGUCAUAGGGU [Exclusion Arginine A GF 20]”, the “apparent KD of K4 kissing-loop reporter” value runs as follows: (input ligand: FMN 200 uM) 158 nM; (input ligand: arginine 13.2 mM) 123 nM; (input ligand: none) 117 nM; under setting [1], 100 nM; under setting [2], 111 nM.

Take “CGCAGUGAUGUUGCGAGUAGCUACAGGGAAGGAGCGUGCUAGAGCACAGGUAGGUCGCCCACGCAGUGAUGUUGUGUCAAAGGGU [Exclusion Arginine A GF 11]”: the “apparent KD of K4 kissing-loop reporter” value runs as follows: (input ligand: FMN 200 uM) 167 nM; (input ligand: arginine 13.2 mM) 168 nM; (input ligand: none) 165 nM; under setting [1], 179 nM; under setting [2], 146 nM.
